Assay results from publication PMC10556095, “A natural mutation in the promoter of Ms-cd1 causes dominant male sterility in Brassica oleracea”.

B1: W7 (dsDNA)
DNA 1: CAGAAATTGACGGAAC
DNA 2: GTTCCGTCAATTTCTG
B2: W1 (dsDNA)
DNA 1: GTGCAGGTAGCTCATG
DNA 2: CATGAGCTACCTGCAC
B3: MTpro (dsDNA)
DNA 1: GATACATGTAAGTGCAGGTAGCTCATGCAGAAATTGACGGAACACAGAGTTACTCTGATTCTATA
DNA 2: TATAGAATCAGAGTAACTCTGTGTTCCGTCAATTTCTGCATGAGCTACCTGCACTTACATGTATC
B4: WTpro (dsDNA)
DNA 1: GATACATGTAAGTGCAGGTAGCTCATGACAGAAATTGACGGAACACAGAGTTACTCTGATTCTATA
DNA 2: TATAGAATCAGAGTAACTCTGTGTTCCGTCAATTTCTGTCATGAGCTACCTGCACTTACATGTATC

What was measured:
[1] = molecular target: T1, BoERF1L-His (His-BoERF1L; Methods: His-BoERF1) (Brassica oleracea, UniProt A0A0D3ABA8 1-210); assay: EMSA; EMSA: 10 µL with 2 µg protein, 20 fmol biotin-labeled DNA, 2 µL 5x EMSA/Gel-Shift Binding Buffer (GS005, Beyotime); 6% polyacrylamide gel; salt, pH and temperature not stated; settings: protein: recombinant, tags: His (Methods: C-terminal; pET-SUMO vector)
T1 sequence (A0A0D3ABA8 entry or part of it): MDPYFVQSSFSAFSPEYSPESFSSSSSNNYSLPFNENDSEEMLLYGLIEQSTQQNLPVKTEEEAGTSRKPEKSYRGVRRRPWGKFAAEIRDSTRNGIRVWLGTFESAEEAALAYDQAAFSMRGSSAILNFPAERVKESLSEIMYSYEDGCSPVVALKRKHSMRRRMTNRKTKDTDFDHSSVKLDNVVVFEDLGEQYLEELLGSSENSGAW

[2] = molecular target: T1, BoERF1L-His (His-BoERF1L; Methods: …); assay: EMSA; unlabeled WTpro at 20x, 30x, 40x competes dose-dependently; EMSA: 10 µL with 2 µg protein, 20 fmol biotin-labeled DNA, 2 µL 5x EMSA/Gel-Shift Binding Buffer (GS005, Beyotime); 6% polyacrylamide gel; salt, pH and temperature not stated; settings: protein: recombinant; tags: His (Methods: C-terminal; pET-SUMO vector); label: biotin

Binder | binding result [1] | other results
B1 | no binding | 
B2 | no binding | 
B3 |  | binding result ([1]; label: biotin): no binding
B4 |  | binding result [2]: binds
